Key:
[1] = biological target: the molecule itself; experiment: cryo-EM structure; MjCorA at 2 mg/mL in 50 mM Tris/HCl pH 8.0, 200 mM NaCl, DDM; initial 3D classification of ~550,000 particles, binned x4, resolution limited to ~6 Å
[2] = biological target: the molecule itself; experiment: cryo-EM structure; WzzB^ST at 10 mg/mL in 20 mM Tris pH 7.5, 150 mM NaCl, 0.025% DDM; single-particle analysis in RELION 5, ~4.2 Å, C6 ring of dimers; AlphaFold2 model fitted and refined
[3] = biological target: the molecule itself; experiment: cryo-EM 2D class averages; WzzB^ST in DDM; 2D classes and an unmasked 3D reconstruction; smaller oligomer and end-to-end pseudo-D-symmetrical pairs of complexes

| Protein | stoichiometry N [1] | stoichiometry N [2] | stoichiometry N [3] |
| --- | --- | --- | --- |
| Methanocaldococcus jannaschii CorA (natural protein, UniProt Q58439 1-317, looked up, CorA magnesium channel (divalent metal ion transporter) of Methanocaldococcus jannaschii, E. coli codon-optimised, in pET15b; The HA tag is said to precede MjCorA; the His-tag was removed by thrombin; also called MjCorA; McCorA) MITVIAIAKDGSIVEPKLDEISFEDYRLIWIDCYDPKDEELYKLSKKIGISVSDLQIGLDEQEIPRVEEDEDFYLIIYKAPLFEEDITTTSLGIYIKNNLLLTIHSDKIKAIGRLHKLISTKKPRIVFERGIGFLLYHILNEITRSYSRILMNLEDELEELEDKLLAGYDREVMEKILGLRKTLVYFHKSLIANRDVLVLLKRKYLPITTKEDRENFEDLYYDTLQLIDMSATYREVLTSMMDITLSLENIKMNQIMKILTMVTTIFAVPMWITGIYGMNFSYLPLANNPQGFWLVMALMVVIIMIFVYIFRRSGWI | 5 |  |  |
| WzzB^ST (natural protein, WzzB^ST, bacterial inner membrane polysaccharide copolymerase (O-antigen chain length regulator); the AlphaFold2 model AF-Q04866-F1 of the full-length protein was fitted into the map; periplasmic domain residues 55-289, TM residues 20-54 and 289-319; source: extraction and purification as previously described [65]; purified, in 20 mM Tris pH 7.5, 150 mM NaCl, 0.025% DDM; copies: 12) MTVDSNTSSGRGNDPEQIDLIELLLQLWRGKMTIIVAVIIAILLAVGYLMIAKEKWTSTAIITQPDAAQVATYTNALNVLYGGNAPKISEVQANFISRFSSAFSALSEVLDNQKEREKLTIEQSVKGQALPLSVSYVSTTAEGAQRRLAEYIQQVDEEVAKELEVDLKDNITLQTKTLQESLETQEVVAQEQKDLRIKQIEEALRYADEAKITQPQIQQTQDVTQDTMFLLGSDALKSMIQNEATRPLVFSPAYYQTKQTLLDIKNLKVTADTVHVYRYVMKPTLPVRRDSPKTAITLVLAVLLGGMIGAGIVLGRNALRSYKPKAL |  | 12 | ~4 |

— publication PMC12466997, “Coming Clean and Avoiding Bubble Trouble–Using Detergents Wisely in the Purification of Membrane Proteins for Cryo-EM Studies” (Biomolecules, 2025)
